This note sets out measurements from patent US20100047245A1.

Residue numbers refer to the chain shown, from its start.

The target in experiment [1] is recombinant purified human IL-12 p70 (human) (UniProt P29459). The experiment in a line: competition ELISA on plate-coated human IL-12; competes 0.8 µg/ml biotinylated 8E1; Expt. 3. In general terms: In an ELISA, binding on a coated surface is turned into a signal by an enzyme label.
Experiment [2] shares this target. The experiment in a line: cell-based or functional assay.
Experiment [3] shares this target. As to the kind of experiment: competition ELISA on plate-coated human IL-12; competes 0.8 µg/ml biotinylated 8E1; Expt. 2.
The target is the same in experiment [4]. The experiment in a line: competition ELISA on plate-coated human IL-12; competes 0.8 µg/ml biotinylated 8E1; Expt. 1.
For experiment [5] the target is unchanged. As to the kind of experiment: SPR (Biacore 3000), mAb captured via goat anti-mouse IgG Fc, human IL-12 p70 in solution. (In general: Surface plasmon resonance follows binding to a sensor surface in real time, without labels.)
The target is the same in experiment [6]. As to the kind of experiment: competition ELISA on plate-coated human IL-12; competes 0.8 µg/ml biotinylated 8E1; Average.
The target is the same in experiment [7]. As to the kind of experiment: SPR (Biacore) per Example 1.1.B, recombinant human IL-12p70.
Experiment [8] has the same target. The experiment in a line: SPR (Biacore) per Example 1.1.B; antigen not restated, taken as human IL-12 p70.

recombinant purified human IL-12 p70 (human), sequence (chain, as listed by the source, form in doubt, chain 1 of 2): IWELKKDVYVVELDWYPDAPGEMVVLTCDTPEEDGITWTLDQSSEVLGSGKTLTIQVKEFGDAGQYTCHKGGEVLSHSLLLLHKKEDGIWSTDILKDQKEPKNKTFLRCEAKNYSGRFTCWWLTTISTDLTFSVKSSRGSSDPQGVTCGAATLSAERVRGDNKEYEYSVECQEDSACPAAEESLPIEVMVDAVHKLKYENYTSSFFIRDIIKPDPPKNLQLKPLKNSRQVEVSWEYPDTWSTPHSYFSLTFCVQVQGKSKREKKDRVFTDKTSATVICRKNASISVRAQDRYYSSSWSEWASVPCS
recombinant purified human IL-12 p70 (human), sequence (P29459 23-219, form in doubt, chain 2 of 2): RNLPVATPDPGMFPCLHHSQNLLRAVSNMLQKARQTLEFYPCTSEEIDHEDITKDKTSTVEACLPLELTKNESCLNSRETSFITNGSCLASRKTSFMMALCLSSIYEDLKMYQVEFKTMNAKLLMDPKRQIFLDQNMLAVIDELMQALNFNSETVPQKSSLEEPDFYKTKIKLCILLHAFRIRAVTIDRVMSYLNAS

B1: 8E1 (antibody, V domains shown)
VH: EVKLVESGGGLVQPGGSRKLSCAASGFTFSDYGMVWVRQAPGKGLEWVASISSGSSNIYYADTVKGRFTISRDDPNNTLFLQMRSLRSEDTAMYYCARNPYWGQGTTLTVSS
VL: DIVMTQSQKFMSTSVGDRVSVTCKASQNVGTNVAWYQQKPGQSPKGLIYSASHRYSGVPDRFAGSGSGTDFTLTISNVQSEDLAEYFCQQYNSYPLTFGGGTKLELKR
One may read the IC50 as the concentration at which inhibition is half-maximal. One may read the Kd as the constant that tells how readily two partners part at equilibrium. As a reminder, the koff is the rate constant with which the complex falls apart. As usually defined, the kon is the second-order rate constant of association. As for B1, the IC50 in experiment [1] was 2.28 µg/mL; in experiment [3], 2.78 µg/mL; in experiment [4], 2.63 µg/mL; in experiment [6] it was 2.56 µg/mL. The Average IC50 (nM) Human IL-12; PHA blast IFN-gamma induction assay in experiment [2] is 0.19 nM. Besides, in experiment [5], the Kd is 0.074 nM. Further, in experiment [5], the koff amounted to 5.1e-05 s⁻¹. In addition, the kon in experiment [5] turned out to be 690000 M⁻¹ s⁻¹.

B2: 8E1.1 (antibody, human IgG1, kappa, L234A L235A, V domains shown)
VH: EVQLVESGGGLVQPGGSLRLSCAASGFTFSDYGMVWVRQAPGKGLEWVGSISSGSSNIYYADTVKGRFTISRDDSKNSLYLQMNSLKTEDTAVYYCARNPYWGQGTTVTVSS
VL: DIQMTQSPSSLSASVGDRVTITCKASQNVGTNVAWYQQKPEKAPKSLIYSASHRYSGVPSRFSGSGSGTDFTLTISSLQPEDFATYYCQQYNSYPLTFGGGTKVEIKR
For B2, the Av. IC50 (nM) Hu IL-12; PHA blast IFN-gamma induction assay in experiment [2] is 2.8 nM. For the same molecule, in experiment [7], the dissociation constant (Kd) came out at 1.7 nM, the koff was 0.00087 s⁻¹ and the kon was 520000 M⁻¹ s⁻¹.

B3: 8E1.5 (antibody, IgG1, V domains shown)
VH: B2 VH with G49A, D74N, S75A, S78T, K87R, T88A, T107L
VL: B2 VL with E41G, S46G, S60D
Take B3: in experiment [1], the concentration for half-maximal inhibition (IC50) came out at 13.4 µg/mL. For the same molecule, the Av. IC50(nM) huIL-12; PHA blast IFN-gamma induction assay in experiment [2] stood at 8 nM. In experiment [8], the Kd was 0.75 nM, the koff came out at 0.00124 s⁻¹ and the on-rate (kon) was 1.6e+06 M⁻¹ s⁻¹.

B4: 8E1.6 (antibody, V domains shown)
VH: B2 VH with G49A, S75A, S78T, K87R, T88A, T107L
VL: B2 VL with E41G, S46G
Turning to B4, the concentration for half-maximal inhibition (IC50) amounted to 1.61 µg/mL in experiment [1], 2.43 µg/mL in experiment [3], 2.25 µg/mL in experiment [4] and 2.1 µg/mL in experiment [6]. Also, the dissociation constant Kd in experiment [8] is 0.046 nM. Further, the koff in experiment [8] was 8e-05 s⁻¹. Besides, the on-rate constant (kon) in experiment [8] turned out to be 1.7e+06 M⁻¹ s⁻¹.

B5: 8E1.4 (antibody, IgG1, V domains shown)
VH: B2 VH with G49A, D74N, S75A, S78T, K87R, T88A, T107L
VL: B2 VL with E41G, S46G
Regarding B5, the IC50 in experiment [1] was 8.33 µg/mL. For the same molecule, the Av. IC50(nM) huIL-12; PHA blast IFN-gamma induction assay in experiment [2] was 12 nM. Moreover, in experiment [8], the Kd came out at 1.3 nM, the koff amounted to 0.001 s⁻¹ and the kon came out at 800000 M⁻¹ s⁻¹.
